# Laboratory results from paper PMC1474052.
# B1: 30mer ssDNA (ssDNA)
# DNA: TGCTCTAGAATGCAAACTACTCTGAACGAG
# What was measured:
# [1] = molecular target: BPV-1 E1 helicase domain K506A (bovine papillomavirus type 1 (BPV-1)); experiment: SEC
# [2] = molecular target: BPV-1 E1 helicase domain W465F (bovine papillomavirus type 1 (BPV-1)); experiment: SEC
# [3] = molecular target: BPV-1 E1 helicase domain H507A (bovine papillomavirus type 1 (BPV-1)); experiment: SEC
# [4] = molecular target: BPV-1 E1 helicase domain, wild type (bovine papillomavirus type 1 (BPV-1)); experiment: SEC
# [5] = molecular target: BPV-1 E1 helicase domain R505E (bovine papillomavirus type 1 (BPV-1)); experiment: SEC
# [6] = molecular target: BPV-1 E1 helicase domain F464A (bovine papillomavirus type 1 (BPV-1)); experiment: SEC
# [7] = molecular target: BPV-1 E1 helicase domain F464W (bovine papillomavirus type 1 (BPV-1)); experiment: SEC
# E1HD wild-type = E1HD wild-type (Bovine papillomavirus 1 (BPV-1), UniProt P03116 299-605); experiment: EMSA
molecule,measurement,setting,value
BPV-1 E1 helicase domain K506A (domain or fragment),stoichiometry N,[1],6
BPV-1 E1 helicase domain W465F (domain or fragment),stoichiometry N,[2],6
BPV-1 E1 helicase domain H507A (domain or fragment),stoichiometry N,[3],6
"BPV-1 E1 helicase domain, wild type (domain or fragment)",stoichiometry N,[4],6
BPV-1 E1 helicase domain R505E (domain or fragment),stoichiometry N,[5],6
BPV-1 E1 helicase domain F464A (domain or fragment),stoichiometry N,[6],6
BPV-1 E1 helicase domain F464W (domain or fragment),stoichiometry N,[7],6
B1,binding result,E1HD wild-type,binds
